Experimental data reported in patent publication US11406709B2, “Therapeutic and research application of PDCL3” (TRUSTEES OF BOSTON UNIVERSITY, priority 2014, dated 2022).

Key:
[1] = test system: VEGFR-1, CSF-1R and PDGFRβ; assay: Cell-free protein synthesis, rabbit reticulocyte transcription/translation system; format: biochemical; settings: TNT Quick Coupled Transcription/Translation System
Protocol: FIG. 12A. Schematic of the experiment is shown. FIG. 12B. In vitro translation and transcription was performed as recommended by the manufacturer except in one group recombinant PDCL3 was added into reaction mixture.
To test whether PDCL3 also could increase expression of cell surface receptors in a cell-free protein synthesis system, we tested the effect of PDCL3 in rabbit reticulocyte system.

[2] = test system: VEGFR-2; assay: In vitro transcription/translation of VEGFR-2; format: biochemical
Protocol: FIG. 1A. HEK-293 cells expressing VEGFR-2 were transfected with different concentrations of C-terminus Myc-tagged PDCL3. After 48 hours cells were lysed and whole cell lysates (WCL) were blotted for VEGFR-2, PDCL3 and Hsp70 for loading control. Quantification of premature (newly synthesized and partially glycosylated VEGFR-2 corresponding to lower molecular weight) and mature (fully glycosylated) forms of VEGFR-2 is shown. Mean results of three independent experiments are shown. *P=0.04 and […]. FIG. 1B. Human umbilical vein endothelial cells (HUVECs) were transfected with control siRNA or PDCL3-siRNA. After 48 hours cells serum-starved for overnight followed by stimulation with VEGF for 10 minutes. Cells were lysed and whole cell lysates were blotted for phospho-Y1054-VEGFR-2, total VEGFR-2, PDCL3 and Hsp70 for loading control. FIG. 1C. Thermo-induced aggregation of VEGFR-2 was measured using PSA dye as described in the materials and method section. FIG. 1D. In vitro transcription/translation of VEGFR-2 in the absence or presence of exogenous recombinant PDCL3 was performed as described in the materials and method section and schematic of the procedure is shown. FIG. 1E. In vitro translated VEGFR-2 protein in the absence or presence of exogenous recombinant PDCL3 was blotted for VEGFR-2. FIG. 1F. […]

B1: recombinant PDCL3 protein: exogenous recombinant PDCL3 protein added to in vitro translation; purified GST-PDCL3 in aggregation assay (protein)
chain: MQDPNADTEWNDILRKKGILPPKESLKELEEEAEEEQRILQQSVVKTYEDMTLEELEDHEDEFNEEDERAIEMYRRRRLAEWKATKLKNKFGEVLEISGKDYVQEVTKAGEGLWVILHLYKQGIPLCALINQHLSGLARKFPDVKFIKAISTTCIPNYPDRNLPTIFVYLEGDIKAQFIGPLVFGGMNLTRDELEWKLSESGAIMTDLEENPKKPIEDVLLSSVRRSVLMKRDSDSEGD
modifications: left off: small tags and cut ends
notes: exogenous recombinant PDCL3 protein added to in vitro translation; purified GST-PDCL3 in aggregation assay
expression of VEGFR-1, CSF-1R and PDGFRβ [1]: significantly increased expression of VEGFR-1, CSF-1R and PDGFRβ | yield of in vitro translated VEGFR-2 [2]: significantly increases the yield of in vitro translated VEGFR-2
